Results from article doi:10.1101/2022.06.17.496531 (bioRxiv, 2022).

Key:
Test in all cases: native MS
[1] = molecular target: long neurotoxin from N. melanoleuca (Naja melanoleuca, UniProt P0DQQ2)
[2] = molecular target: long neurotoxin 2 from N. melanoleuca (Naja melanoleuca, UniProt P01388)
[3] = molecular target: long neurotoxin 2 from O. hannah (Ophiophagus hannah, UniProt A8N285)
[4] = molecular target: long neurotoxin 4 from N. naja (Naja naja, UniProt P25672)

Measured: binding result

B1: 2554_01_D11 IgG (antibody, V domains shown)
VH: QVQLVQSGAEVKKPGSSVKVSCKASGGTFSSYAISWVRQAPGQGLEWMGGIIPIFGTANYAQKFQGRVTITADESTSTAYMELRSLRSDDTAVYYCARDNLGYCSGGSCYSDYYYYYMDVWGQGTLVTVSS
VL: NFMLTQPRSVSESPGKTVTISCTRSSGSIGSDYVHWYQQRPGSSPTTVIYEDNQRPSGVPDRFSGSIDSSSNSASLTISGLKTEDEADYYCQSYDRSNHEVVFGGGTKLTVL
binds: all assays above
